Biological target: T1, H6-CtBP2 (UniProt P56545 1-445)
T1 construct: also called H6-tagged wt CtBP2; wt CtBP2; source: purified
Test: pull-down; GST fusion proteins charged on glutathione-agarose beads, incubated with purified H6-CtBP2 or H6-RR-CtBP2 (~0.1 μg) in 200 μl of 25 mM Tris-HCl pH 7.5, 0.25 M NaCl, 0.5% Triton X-100, 0.5 mM DTT for 1 h at 4°C; Western blot with the CtBP2 antibody
Conditions: both partners purified

- binding result: binds
B1: GST-ZEB101 (domain or fragment, UniProt P37275-1 680-780, looked up)
chain: PLKMTNSPVLPVGSTTNGSRSSTPSPSPLNLSSSRNTQGYLYTAEGAQEEPQVEPLDLSLPKQQGELLERSTITSVYQNSVYSVQEEPLNLSCAKKEPQKD
notes: ZEB (ZEB1), GenBank NM_030751, aa 680-780; transferred from pGFP-ZEB101 to a pGST vector at XhoI/EcoRI; also called wt ZEB101; source: induced with 1 mM IPTG; lysate loaded onto glutathione-agarose beads

Reference: publication PMC2749851, “Interaction of ZEB and Histone Deacetylase with the PLDLS-binding cleft region of monomeric C-terminal Binding Protein 2” (BMC Molecular Biology, 2009)
